Results on two molecules are retold here after patent US20040137643A1, “Immunodetection and quantification methods” (priority 2002, published 2004).

Several values for one entry are separate records, joined by “and”; a condition that tells them apart may be missing. Identical values can stand only once. Like-named read-outs stand apart in the source and are kept apart here.

A short description of the series: C4H enzyme assay: para-hydroxylation of cinnamic acid by yeast microsomes, HPLC quantification of p-coumarate. Conditions: for Km: Arabidopsis C4H in WAT11 yeast microsomes, substrate cinnamic acid; for Turnover (min^−1 ± SD), CO difference spectrum: P450 concentration from CO difference spectroscopy; for turnover rate, calculated using P450 concentrations from CO difference spectroscopy: spectroscopic P450 quantification. The class given is biochemical. The method, then:
C4H assays were carried out in the presence of various concentrations of cinnamic acid as previously described (Humphreys et al., 1999). Briefly, an NADPH regenerating system consisting of 1 mM NADP^+, 10 mM glucose-6-phosphate, and 1 unit of glucose-6-phosphate dehydrogenase (Sigma, St. Louis, Mo.) was pre-incubated at 30° C. for 5 min to generate NADPH in a final volume of 450 PL of assay buffer. Assays were initiated by the addition of 50 μL of appropriately diluted microsomes and were incubated at 30° C. for 20 min before the reactions were stopped with 100 μL of 3N HCl. Samples were centrifuged for 20 min at 14,000×g and then analyzed by HPLC (Shimadzu Corp., Kyoto, Japan) using a Microsorb-MV C-18 column (Varian Analytical Instruments, Walnut Creek, Calif.) using the following method: solvent A, 1.5% acetic acid in water; solvent B, acetonitrile; flow rate of 1 mL min^−1; 0 to […] in 1.5 min, […], 35 to 100% B in 1 min, 100% B for 5 min. Reaction product was quantified by UV detection at 308 nm. Assays conducted with microsomes isolated from yeast transformed with pYeDP60 served as negative controls.
To evaluate the impact of introducing an amino-terminal FLAG epitotope on C4H enzymatic activity, kinetic parameters of both native and FLAG-C4H were determined using the same microsomal fractions used for protein quantification. It is important to note that the WAT11 yeast strain was chosen because this strain is engineered to express the Arabidopsis P450 reductase gene ATR1 under the control of the same galactose promoter used to drive P450 expression, eliminating the need to reconstitute the P450/P450 reductase system. Consistent with subcellular targeting of wild-type C4H expressed in yeast, both the native and FLAG-C4H activity was found in the microsomal fraction. […] Turnover rates of native and FLAG-C4H were also evaluated, using both spectroscopic and immunological P450 quantitation. When calculated using P450 concentrations obtained from CO difference spectroscopy, native C4H and FLAG-C4H turnover rates were determined to be 28±0.1 and 83±2.0 min^1, respectively. This difference, although significant, may be associated with variability in reductase activity in this heterologous expression system (data not shown). In comparison to CO difference spectroscopy, the lower concentration of FLAG-C4H obtained by Midwestern blot gives a correspondingly higher turnover rate of 380±7 min^−1.

Setting [1] is: P450 concentration from Midwestern blot.

B1: Wild type C4H: Arabidopsis P450 cinnamate 4-hydroxylase (C4H) expressed in yeast from pYeDP60-C4H (protein, UniProt P92994 1-505, looked up)
Trans-cinnamate …: MDLLLLEKSLIAVFVAVILATVISKLRGKKLKLPPGPIPIPIFGNWLQVGDDLNHRNLVDYAKKFGDLFLLRMGQRNLVVVSSPDLTKEVLLTQGVEFGSRTRNVVFDIFTGKGQDMVFTVYGEHWRKMRRIMTVPFFTNKVVQQNREGWEFEAASVVEDVKKNPDSATKGIVLRKRLQLMMYNNMFRIMFDRRFESEDDPLFLRLKALNGERSRLAQSFEYNYGDFIPILRPFLRGYLKICQDVKDRRIALFKKYFVDERKQIASSKPTGSEGLKCAIDHILEAEQKGEINEDNVLYIVENINVAAIETTLWSIEWGIAELVNHPEIQSKLRNELDTVLGPGVQVTEPDLHKLPYLQAVVKETLRLRMAIPLLVPHMNLHDAKLAGYDIPAESKILVNAWWLANNPNSWKKPEEFRPERFFEEESHVEANGNDFRYVPFGVGRRSCPGIILALPILGITIGRMVQNFELLPPPGQSKVDTSEKGGQFSLHILNHSIIVMKPRNC
In general, Km refers to the concentration of substrate that gives half-maximal velocity. Regarding B1, the “Turnover (min^−1 ± SD), CO difference spectrum” value was 28 ± 0.1 min⁻¹ and the “turnover rate, calculated using P450 concentrations from CO difference spectroscopy” value was 28±0.1 min^1. For the same molecule, the Michaelis constant (Km) (n=3, read-out: Km app. (±SD)) came out at 0.7 ± 0.01 µM. In addition, the Michaelis-Menten constant (Km) (read-out: Km^aPP) came to 0.7 ± 0.01 µM.

B2: FLAG-tagged C4H: amino-terminal FLAG-epitope tagged C4H expressed in yeast from pYeDP60-FC4H (protein, UniProt P92994 1-505, looked up)
Trans-cinnamate …: B1 Trans-cinnamate …
modifications: N-terminal FLAG tag
Regarding B2, the “Turnover (min^−1 ± SD), CO difference spectrum” value was 83 ± 2 min⁻¹. Further, the Km (n=3, read-out: Km app. (±SD)) stood at 1.1 ± 0.09 µM. The Km (read-out: Km^aPP) came out at 1.1 ± 0.09 µM. Moreover, under setting [1], the “Turnover (min^−1 ± SD), Midwestern blot” value was 380 ± 7 min⁻¹ and the “turnover rate, calculated using immunological quantification” value was 380±7 min^1. The “Turnover (min^−1 ± SD), Midwestern blot” value (P450 concentration from Midwestern blot, listed as FLAG-C4H) stood at 380 ± 7 min⁻¹. In addition, the “turnover rate, calculated using P450 concentrations from CO difference spectroscopy” value (listed as FLAG-C4H) was 83±2.0 min^1 and 83±2 min^1.
